For test [1], the system named is PK2 mRNA in the PVN. The following applies: compared with induction by 24 hours of food deprivation. The protocol: In situ hybridization was performed for detection. Animals were killed and brains were quickly dissected and stored at −80° C. until use. In situ hybridization was performed on coronal sections as described previously. The ^35S-hybridized slices were then coated with Kodak NTB2 autoradiographic emulsion and exposed for 1 month at 4° C.

Test [2] in a line: Hot-plate pain test, morphine-induced analgesia. It counts as in vivo. The following applies: subcutaneous injection, various concentrations, 55° C. hot plate, WT vs PK2^-/- mice. The text has this:
FIGS. 6A-6C show impaired stress-induced analgesia in PK2^-/- mice. […] (a and b) The hot-plate latency was monitored before or after stress. Animals were stressed by 3-min of cold-water swimming (a) or 5-min of tail suspension (b). Wild-type (closed circles); PK2^-/- (open circles). The black blocks indicate the stressing period. (c) The hot-plate latency was also monitored after subcutaneous injection of various concentrations of morphine. There was no genotypic difference in morphine-induced analgesia; n=12-15 mice/genotype *, P<0.05; unpaired t test. Error bars, SEM.
Pain perception and stress-induced analgesia was measured. All the pain tests were carried out on a hot plate with a 55° C. surface, on which no basal difference was observed between WT and PK2^-/- mice. The cut-off time was set to 1 min to prevent tissue damage. Stress was induced by forced swimming for 3 min in 10° C. water, or suspending the tail for 5 minutes.

Test [3] is described as follows: Sleep/wake recording after ICV infusion. The note with it: rats, 5 μg ICV at ZT 14, following 4 hours (ZT 14-18), vs CSF. Format: in vivo. The protocol:
(§1) (a) Artificial cerebrospinal fluid (CSF) or 5 μg of PK2 was infused ICV to rats at ZT 14. Slow wave sleep (SWS), rapid eye movement sleep (REM) and active wake (AW) during the following 4 hours (ZT 14-18) were averaged and presented as mean±SEM; n=6 rats/group. (b) CSF or 5 μg of PK2 was infused ICV to rats at ZT 2 (day) or ZT 14 (night), the food intake in the following 24 hours were measured periodically and presented as mean±SEM. n=6-10 rats/group. (c) CSF or 4 μg of PK2 was infused ICV into mice. Anxiety-like behavior was monitored with a light-dark box assay 1 hour after infusion. n=12 mice/group. (d) CSF or 4 μg of PK2 was infused ICV into mice. Immobility in a forced swimming test was measured 1 hour after infusion; n=12 mice/group. *, P<0.05; unpaired t test. Error bars, SEM.
Recording and analysis of sleep/wake was performed. The sleep/wake recording in rats was carried out as described in reference. Digital recording was visually scored as slow wave sleep (SWS), rapid eye movement sleep (REM) and active wake (AW). For the mice, electroencephalogram (EEG) and electromyogram (EMG) signals were recorded using a lightweight implant and cabling procedure as described. […] The signals were digitally filtered (EEG, 0.3-30 Hz; EMG, 2-100 Hz) and semi-automatically scored in 4 second epochs as wake, NREM, or REM sleep using SleepSign sleep scoring software (Kissei Comtec America, California). […]

A short description of test [4]: Food intake after ICV infusion. Format: in vivo. The following applies: rats, 5 μg ICV at ZT 2 (day) or ZT 14 (night), following 24 hours, vs CSF. The protocol: as §1
Food intake was measured. Mice food intake measurement was performed using a Comprehensive Lab Animal Monitoring System (CLAMS, Columbus Instruments, Columbus, Ohio). Feeding data were collected every 10 min for each mouse over a period of 5 days. The daily food intake was the total food consumed during 24 hours. For rats, the food pellets in the food bin were measured manually every 4-8 hours after drug infusion. The food intake was the total amount of food loaded subtracted by the amount of food left.
Intracerebroventricular infusion was utilized. […]

Test [5] in a line: Light-dark box assay (anxiety-like behavior) after ICV infusion. Format: in vivo. The note with it: mice, 4 μg ICV, 1 hour after infusion, vs CSF. The protocol:
as §1
The light-dark box was divided into a lit compartment (30×20×25 cm, illumination 400 lux) and a dark compartment (15×20×25 cm) connected by a 4-cm tunnel. The experiment was started by placing the animal in the dark compartment.
Numbers of transitions, total time spent in the lit compartment, and latency until the first exit were recorded on video and quantified during 10 minutes.
(§2) Intracerebroventricular infusion was utilized. Rats with cannula fit to the lateral ventricle were purchased from Charles River laboratory. […]

Test [6] is described as follows: Forced swimming test (depression-like behavior) after ICV infusion. Format: in vivo. The note with it: mice, 4 μg ICV, 1 hour after infusion, vs CSF. The protocol: as §1
The Porsolt forced swim test was utilized. Animals were placed individually in cylinders (height 25 cm, diameter 11 cm) filled with 8-cm-deep water (temperature 22±1° C.) for 6 minutes The total period of immobility during the 6 minutes was recorded. Immobility was defined as no volitional body or limb movement.
as §2

For `O=CC[C@@H](O)[C@H](O)[C@H](O)CO` [2-DG, 2-Dexoyl-D-glucose], the “induction of PK2 mRNA in the PVN” value in test [1] is “induction was mimicked”.
On to `CN1CC[C@]23c4c5ccc(O)c4O[C@H]2[C@@H](O)C=C[C@H]3[C@H]1C5` [morphine], for which the “morphine-induced analgesia (hot-plate latency)” value in test [2] is “indistinguishable between WT and PK2^-/- mice”.

B1: PK2: regulatory peptide that activates two closely related G protein-coupled receptors (PKR1, PKR2) (protein, UniProt Q9HC23 28-129, looked up)
Prokineticin-2: AVITGACDKDSQCGGGMCCAVSIWVKSIRICTPMGKLGDSCHPLTRKNNFGNGRQERRKRKRSKRKKEVPFFGRRMHHTCPCLPGLACLRTSFNRFICLAQK
With B1, the arousal level entry in test [3] is reported as “significantly increased arousal level”. For the same molecule, in test [4], the food intake result is listed as “circadian phase-independent suppression of food intake”. For the same molecule, in test [5], the “general activity (total entries)” value is “without significant effect on general activity” and the “time spent in the lit compartment” value is “significantly less time spent in the lit compartment”. In addition, the “time spent on immobility” value in test [6] is “significantly increased the time spent on immobility”.

Values taken from patent publication US20100286021A1, “Methods of Modulating Prokineticin 2 for Treatment of Stress Response and Anxiety-Related Disorders” (priority 2007, published 2010).
